Test results reported in publication PMC3973309.

T1: BfiI-C (C-terminal DNA-binding domain) (UniProt Q9F4C9 193-358)
T1 sequence: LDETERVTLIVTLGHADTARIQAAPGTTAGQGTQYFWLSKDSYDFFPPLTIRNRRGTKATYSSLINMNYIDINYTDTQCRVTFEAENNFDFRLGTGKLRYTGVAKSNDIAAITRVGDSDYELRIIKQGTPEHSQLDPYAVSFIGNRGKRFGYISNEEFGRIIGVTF

T2: BfiI W229A (UniProt Q9F4C9 1-358, W229A)
T2 sequence: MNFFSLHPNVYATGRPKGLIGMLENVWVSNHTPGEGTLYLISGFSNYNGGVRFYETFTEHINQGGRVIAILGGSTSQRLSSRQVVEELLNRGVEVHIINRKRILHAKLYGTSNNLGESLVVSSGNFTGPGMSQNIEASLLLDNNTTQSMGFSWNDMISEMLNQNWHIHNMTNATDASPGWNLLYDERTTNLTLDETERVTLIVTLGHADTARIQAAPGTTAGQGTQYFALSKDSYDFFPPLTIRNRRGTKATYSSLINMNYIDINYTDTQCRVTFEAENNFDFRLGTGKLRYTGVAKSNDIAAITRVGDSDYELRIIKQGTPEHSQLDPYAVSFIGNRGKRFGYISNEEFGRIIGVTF

T3: BfiI R291A (UniProt Q9F4C9 1-358, R291A)
T3 sequence: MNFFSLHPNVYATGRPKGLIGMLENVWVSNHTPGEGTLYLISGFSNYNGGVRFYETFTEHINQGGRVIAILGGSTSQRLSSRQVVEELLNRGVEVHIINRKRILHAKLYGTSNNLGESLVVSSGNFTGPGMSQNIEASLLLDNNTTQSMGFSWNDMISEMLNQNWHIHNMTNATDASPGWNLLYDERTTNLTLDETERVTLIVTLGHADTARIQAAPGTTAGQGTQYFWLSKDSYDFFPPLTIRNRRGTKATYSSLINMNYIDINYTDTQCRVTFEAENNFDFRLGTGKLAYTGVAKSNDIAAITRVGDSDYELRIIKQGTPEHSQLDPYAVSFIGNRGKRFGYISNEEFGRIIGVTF

T4: BfiI Y227A (UniProt Q9F4C9 1-358, Y227A)
T4 sequence: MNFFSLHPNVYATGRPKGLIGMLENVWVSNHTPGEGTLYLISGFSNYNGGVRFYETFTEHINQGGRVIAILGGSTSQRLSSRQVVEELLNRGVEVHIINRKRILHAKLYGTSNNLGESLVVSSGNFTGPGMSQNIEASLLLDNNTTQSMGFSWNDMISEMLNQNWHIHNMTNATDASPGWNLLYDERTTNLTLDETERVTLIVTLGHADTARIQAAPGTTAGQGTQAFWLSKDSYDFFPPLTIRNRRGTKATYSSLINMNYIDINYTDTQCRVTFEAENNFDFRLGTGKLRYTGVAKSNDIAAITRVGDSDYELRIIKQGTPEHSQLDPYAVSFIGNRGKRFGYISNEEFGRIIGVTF

T5: BfiI E276A (UniProt Q9F4C9 1-358, E276A)
T5 sequence: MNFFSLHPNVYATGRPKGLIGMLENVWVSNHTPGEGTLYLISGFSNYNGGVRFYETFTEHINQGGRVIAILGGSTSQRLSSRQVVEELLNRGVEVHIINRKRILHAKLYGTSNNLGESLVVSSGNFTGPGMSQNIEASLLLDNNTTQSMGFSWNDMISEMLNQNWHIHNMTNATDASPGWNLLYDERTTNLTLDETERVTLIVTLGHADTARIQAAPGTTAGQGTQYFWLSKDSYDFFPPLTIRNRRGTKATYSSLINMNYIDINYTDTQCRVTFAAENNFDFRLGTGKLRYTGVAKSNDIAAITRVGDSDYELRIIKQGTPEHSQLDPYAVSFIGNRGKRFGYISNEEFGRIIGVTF

T6: BfiI R212A (UniProt Q9F4C9 1-358, R212A)
T6 sequence: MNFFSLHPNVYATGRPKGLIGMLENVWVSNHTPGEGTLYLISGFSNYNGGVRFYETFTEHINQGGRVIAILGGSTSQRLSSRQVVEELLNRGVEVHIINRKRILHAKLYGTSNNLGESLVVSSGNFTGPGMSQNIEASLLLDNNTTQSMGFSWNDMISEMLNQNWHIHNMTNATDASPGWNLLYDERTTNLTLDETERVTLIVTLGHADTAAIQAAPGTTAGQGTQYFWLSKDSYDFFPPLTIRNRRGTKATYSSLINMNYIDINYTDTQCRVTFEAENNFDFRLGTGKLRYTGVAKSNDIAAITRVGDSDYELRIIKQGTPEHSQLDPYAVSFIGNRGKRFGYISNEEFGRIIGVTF

T7: BfiI T225A (UniProt Q9F4C9 1-358, T225A)
T7 sequence: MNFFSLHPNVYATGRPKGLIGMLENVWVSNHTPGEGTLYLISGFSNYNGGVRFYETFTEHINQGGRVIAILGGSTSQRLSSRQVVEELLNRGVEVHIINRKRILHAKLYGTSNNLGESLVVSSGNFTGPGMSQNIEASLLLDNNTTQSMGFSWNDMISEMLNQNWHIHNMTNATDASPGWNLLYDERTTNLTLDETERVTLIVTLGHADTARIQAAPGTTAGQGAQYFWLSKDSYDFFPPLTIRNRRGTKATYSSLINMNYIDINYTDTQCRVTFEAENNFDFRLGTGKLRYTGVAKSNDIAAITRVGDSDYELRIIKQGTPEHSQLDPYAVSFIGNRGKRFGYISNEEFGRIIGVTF

T8: BfiI R272A (UniProt Q9F4C9 1-358, R272A)
T8 sequence: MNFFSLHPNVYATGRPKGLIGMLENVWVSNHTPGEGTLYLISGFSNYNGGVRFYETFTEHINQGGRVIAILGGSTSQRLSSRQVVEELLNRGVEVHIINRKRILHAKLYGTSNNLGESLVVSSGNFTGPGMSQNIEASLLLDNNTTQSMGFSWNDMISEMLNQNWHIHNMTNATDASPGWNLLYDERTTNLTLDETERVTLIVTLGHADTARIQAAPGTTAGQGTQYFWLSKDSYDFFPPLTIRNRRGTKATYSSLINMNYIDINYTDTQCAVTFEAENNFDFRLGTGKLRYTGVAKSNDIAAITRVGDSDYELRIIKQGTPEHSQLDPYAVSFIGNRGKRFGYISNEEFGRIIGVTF

T9: BfiI Q223A (UniProt Q9F4C9 1-358, Q223A)
T9 sequence: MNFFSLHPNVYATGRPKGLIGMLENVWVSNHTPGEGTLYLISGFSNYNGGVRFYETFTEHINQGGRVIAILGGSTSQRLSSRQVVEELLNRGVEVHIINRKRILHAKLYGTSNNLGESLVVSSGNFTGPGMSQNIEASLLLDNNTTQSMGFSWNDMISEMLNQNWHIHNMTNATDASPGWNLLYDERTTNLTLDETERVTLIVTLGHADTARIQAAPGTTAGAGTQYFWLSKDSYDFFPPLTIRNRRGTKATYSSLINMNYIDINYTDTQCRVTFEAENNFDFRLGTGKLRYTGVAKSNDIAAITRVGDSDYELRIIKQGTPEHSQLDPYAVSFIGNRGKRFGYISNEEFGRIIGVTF

T10: BfiI N245A (UniProt Q9F4C9 1-358, N245A)
T10 sequence: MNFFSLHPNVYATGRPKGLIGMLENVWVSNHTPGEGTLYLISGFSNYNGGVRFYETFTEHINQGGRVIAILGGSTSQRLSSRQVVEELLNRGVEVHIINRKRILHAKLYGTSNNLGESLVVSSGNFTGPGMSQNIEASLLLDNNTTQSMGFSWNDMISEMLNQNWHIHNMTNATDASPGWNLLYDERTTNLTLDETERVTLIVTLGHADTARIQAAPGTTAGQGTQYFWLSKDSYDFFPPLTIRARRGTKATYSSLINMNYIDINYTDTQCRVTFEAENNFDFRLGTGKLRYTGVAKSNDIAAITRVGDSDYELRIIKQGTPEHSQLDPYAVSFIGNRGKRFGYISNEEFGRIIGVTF

T11: BfiI K250A (UniProt Q9F4C9 1-358, K250A)
T11 sequence: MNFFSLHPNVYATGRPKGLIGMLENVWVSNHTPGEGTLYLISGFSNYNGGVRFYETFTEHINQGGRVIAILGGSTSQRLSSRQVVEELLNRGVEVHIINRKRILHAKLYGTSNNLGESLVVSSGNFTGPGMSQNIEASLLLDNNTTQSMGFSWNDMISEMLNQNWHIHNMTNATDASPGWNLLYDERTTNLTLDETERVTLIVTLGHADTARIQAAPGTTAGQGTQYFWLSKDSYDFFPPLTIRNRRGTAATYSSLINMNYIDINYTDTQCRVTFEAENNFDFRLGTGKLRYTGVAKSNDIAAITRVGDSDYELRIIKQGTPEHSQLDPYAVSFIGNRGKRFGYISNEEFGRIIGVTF

T12: BfiI Q226A (UniProt Q9F4C9 1-358, Q226A)
T12 sequence: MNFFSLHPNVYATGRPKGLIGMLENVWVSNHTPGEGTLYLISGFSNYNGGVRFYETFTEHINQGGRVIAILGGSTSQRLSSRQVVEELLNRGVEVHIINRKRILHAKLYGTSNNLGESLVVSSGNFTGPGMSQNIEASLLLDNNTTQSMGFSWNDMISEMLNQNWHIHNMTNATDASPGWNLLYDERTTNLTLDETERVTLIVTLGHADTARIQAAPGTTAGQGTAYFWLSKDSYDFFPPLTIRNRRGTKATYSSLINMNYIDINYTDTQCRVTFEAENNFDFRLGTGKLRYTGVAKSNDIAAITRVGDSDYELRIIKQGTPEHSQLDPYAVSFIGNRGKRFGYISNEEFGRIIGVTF


Assays:
[1] = target: T1, BfiI-C (C-terminal DNA-binding domain); assay: X-ray crystallography
BfiI W229A = target: T2, BfiI W229A; assay: EMSA
BfiI R291A = target: T3, BfiI R291A; assay: EMSA
BfiI Y227A = target: T4, BfiI Y227A; assay: EMSA
BfiI E276A = target: T5, BfiI E276A; assay: EMSA
BfiI R212A = target: T6, BfiI R212A; assay: EMSA
BfiI T225A = target: T7, BfiI T225A; assay: EMSA
BfiI R272A = target: T8, BfiI R272A; assay: EMSA
BfiI Q223A = target: T9, BfiI Q223A; assay: EMSA
BfiI N245A = target: T10, BfiI N245A; assay: EMSA
BfiI K250A = target: T11, BfiI K250A; assay: EMSA
BfiI Q226A = target: T12, BfiI Q226A; assay: EMSA

| Binder | binding result [1] | binding signal (BfiI W229A) | binding signal (BfiI R291A) | binding signal (BfiI Y227A) | binding signal (BfiI E276A) | binding signal (BfiI R212A) | binding signal (BfiI T225A) | binding signal (BfiI R272A) | binding signal (BfiI Q223A) | binding signal (BfiI N245A) | binding signal (BfiI K250A) | binding signal (BfiI Q226A) |
| --- | --- | --- | --- | --- | --- | --- | --- | --- | --- | --- | --- | --- |
| 12/12 (dsDNA) DNA 1: AGCACTGGGTCG DNA 2: CGACCCAGTGCT | binds | – | – | – | – | – | – | – | – | – | – | – |
| 16SP (dsDNA) DNA 1: AGCGTAGCACTGGGCT DNA 2: AGCCCAGTGCTACGCT | – | 1 % of WT KA | 2 % of WT KA | 5 % of WT KA | 10 % of WT KA | 2 % of WT KA | 10 % of WT KA | 1 % of WT KA | 100 % of WT KA | 100 % of WT KA | 2 % of WT KA | 50 % of WT KA |
